In paper doi:10.1101/296517:

Tests used:
[1] = molecular target: giantin (rat hepatocytes) (rat (endogenous in primary hepatocytes)); experiment: Western blot of lysates
[2] = molecular target: giantin (human (endogenous in HeLa, LNCaP, PC-3, liver tissue)) (UniProt Q14789); experiment: Western blot of lysates; conditions: remark: other sources report otherwise

stoichiometry N [1] | stoichiometry N [2] | Substance
2 | – | giantin (rat hepatocytes) (natural protein)
– | 2 | giantin, Q14789 1-3259
